T1: recombinant cynomolgus MerTK extracellular domain (cynomolgus, UniProt Q12866 21-505 (human entry))
T1 construct: also called cyno MerTK ECD; not shown: polyHis or TEVS/Thrombin/murine IgG2a-Fc tag
T1 chain: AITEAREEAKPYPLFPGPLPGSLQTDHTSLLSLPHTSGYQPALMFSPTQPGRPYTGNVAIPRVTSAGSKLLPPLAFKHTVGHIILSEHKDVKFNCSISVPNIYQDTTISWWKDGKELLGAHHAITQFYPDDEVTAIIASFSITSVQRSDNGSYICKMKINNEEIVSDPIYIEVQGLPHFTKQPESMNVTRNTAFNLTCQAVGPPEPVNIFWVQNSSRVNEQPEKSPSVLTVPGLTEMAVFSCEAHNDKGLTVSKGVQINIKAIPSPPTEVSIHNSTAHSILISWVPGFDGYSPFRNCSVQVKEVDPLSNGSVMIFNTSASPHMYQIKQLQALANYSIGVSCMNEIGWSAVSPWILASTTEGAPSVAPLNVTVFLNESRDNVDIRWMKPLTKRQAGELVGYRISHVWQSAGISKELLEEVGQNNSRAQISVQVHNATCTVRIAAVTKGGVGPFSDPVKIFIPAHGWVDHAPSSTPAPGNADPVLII

T2: recombinant murine MerTK extracellular domain (mouse, UniProt Q60805 19-497)
T2 construct: also called Mouse MerTK; murine MerTK ECD; not shown: polyHis or TEVS/Thrombin/murine IgG2a-Fc tag
T2 sequence: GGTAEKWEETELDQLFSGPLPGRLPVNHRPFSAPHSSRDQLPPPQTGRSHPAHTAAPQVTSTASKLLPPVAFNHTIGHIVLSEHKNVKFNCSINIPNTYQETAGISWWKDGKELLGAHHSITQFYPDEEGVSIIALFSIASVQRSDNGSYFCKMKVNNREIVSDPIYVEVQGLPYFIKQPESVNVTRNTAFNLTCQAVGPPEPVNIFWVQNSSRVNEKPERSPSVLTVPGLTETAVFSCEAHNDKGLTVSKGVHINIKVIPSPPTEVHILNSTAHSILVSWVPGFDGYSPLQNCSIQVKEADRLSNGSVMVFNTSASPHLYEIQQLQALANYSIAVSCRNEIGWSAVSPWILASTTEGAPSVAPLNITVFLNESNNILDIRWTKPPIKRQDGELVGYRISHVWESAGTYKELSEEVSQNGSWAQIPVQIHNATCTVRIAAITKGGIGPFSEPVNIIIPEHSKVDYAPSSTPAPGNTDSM

T3: MerTK N-terminal ECD Half-and-half chimera (human)
T3 construct: tested as culture supernatant; also called MerTK N-term half-and-half chimera; MerTK N-terminal ECD (NT-Ig1-Ig2) + Axl C-terminal ECD (FN1-FN2-JM)
T3 chain: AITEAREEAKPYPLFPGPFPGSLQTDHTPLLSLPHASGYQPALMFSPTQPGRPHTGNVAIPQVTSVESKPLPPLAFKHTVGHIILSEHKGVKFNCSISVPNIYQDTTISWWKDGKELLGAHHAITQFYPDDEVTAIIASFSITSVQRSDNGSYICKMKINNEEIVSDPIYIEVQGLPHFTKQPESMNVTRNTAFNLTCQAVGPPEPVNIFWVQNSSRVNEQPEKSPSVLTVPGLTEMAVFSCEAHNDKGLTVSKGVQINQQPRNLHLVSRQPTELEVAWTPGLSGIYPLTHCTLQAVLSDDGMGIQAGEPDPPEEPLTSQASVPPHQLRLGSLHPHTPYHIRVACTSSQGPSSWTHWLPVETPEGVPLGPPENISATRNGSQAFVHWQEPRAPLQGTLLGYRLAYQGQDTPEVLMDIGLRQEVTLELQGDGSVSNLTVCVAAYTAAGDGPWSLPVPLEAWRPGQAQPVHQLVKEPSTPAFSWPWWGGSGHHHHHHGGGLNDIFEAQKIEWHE


Assays:
[1] = biological target: T1, recombinant cynomolgus MerTK …; experiment: SPR Carterra LSA
Experimental: Binding kinetics of anti-MerTK IgG1 antibodies of the present disclosure to human, cyno, and murine MerTK were evaluated using a Carterra LSA instrument (Carterra, Salt Lake City, UT). […] A HC200M sensor chip (Carterra) was activated using the single channel flow cell with a 7-minute injection of a 1:1:1 mixture of 100 mM MES pH 5.5, 100 mM sulfo-NHS, 400 mM EDC (all reconstituted in MES pH 5.5; 100 μl of each mixed in vial immediately before running assay). After switching to the multi-channel array flow cell, the antibodies were injected over the activated chip in three 96-spot arrays for 10 minutes each. The remaining unconjugated active groups on the chip were then blocked by injecting 1M Ethanolamine pH 8.5 (Carterra) for 7 minutes using the single channel flow cell. The resulting sensor chip contained three spots for each antibody, at three different densities. Two independent experiments were performed as follows, resulting in an N of between one and six determinations for each antibody. Spots that yielded less than 25 RU of analyte binding were excluded from further analysis.
After priming with running buffer (HBS-TE, Carterra) with 0.5 mg/ml BSA (Sigma), the immobilized anti-MerTK antibodies were tested for their ability to bind to several forms of recombinant MerTK extracellular domain, including human, cynomolgus, and mouse orthologs as described above. Estimates of affinity were generated by injecting each analyte over the entire antibody array using the single channel flow cell. MerTK analytes were diluted with running buffer, in a series of six, three-fold serial dilutions starting from 1 μM for human and cynomolgus MerTK, and 600 nM for mouse MerTK. Analytes were injected for 5 minutes, and dissociation was followed for 10 minutes. After each analyte injection, antibodies were regenerated with either Protein A/G Elution Buffer (Thermo) with 1M NaCl (Teknova), or with 10 mM Glycine pH 2.5. Three buffer blanks were run between each series (one species per series). Data were processed and analyzed using NextGenKIT high-throughput kinetics analysis software (Carterra).

[2] = biological target: T1, recombinant cynomolgus MerTK …; experiment: SPR Carterra LSA, Ab immobilised
How it was run: (§1)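 Surface plasmon resonance on a Carterra LSA measured affinity of immobilized antibodies for human, cynomolgus or mouse MerTK ectodomain diluted in HBS-TE with 0.5 mg/ml BSA. Analytes flowed over the full array, surfaces were regenerated with Protein A/G Elution Buffer plus 1M NaCl or 10 mM Glycine pH 2.5, and spots binding under 25 RU were discarded before kinetic fitting.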

[3] = biological target: T2, recombinant murine MerTK extracellular …; experiment: SPR Carterra LSA, Ab immobilised
How it was run: as §1

[4] = biological target: T3, MerTK N-terminal ECD Half-and-half …; experiment: SPR, construct supernatant over immobilised Ab
Experimental: Binding of anti-MerTK antibodies of the present disclosure to these domain-swapped chimera or deletion mutants was tested by Surface Plasmon Resonance (SPR) using Carterra LSA. Purified anti-MerTK antibodies were immobilized in duplicate on a HC30M chip (Carterra) by amine coupling, following the manufacturer's instructions (described previously).
Supernatants containing the constructs were diluted 1:1 with running buffer containing 0.5 mg/mL BSA (HBS-TE, Carterra; BSA, Sigma) and injected over the immobilized antibodies. The surface was regenerated with 10 mM Glycine pH2.0 after each construct injection. Sensorgrams were analyzed using Carterra Epitope software to identify patterns of construct binding. Loss of binding to MerTK constructs with domains deleted or swapped in from Axl and/or gain of binding to Axl constructs with MerTK domains swapped in were evaluated. Data from these studies were used to construct a domain binding map for anti-MerTK antibodies and their binding to various domains of human MerTK.

| Ratio of KD for Cynomolgus vs Human MerTK [1] [ratio] | Kd [2] [nM] | Kd [3] [nM] | binding result [4] | Binder | binding result [3] |
| --- | --- | --- | --- | --- | --- |
| 18.3 | 1500 | 11 | no binding | MTK-212 (antibody, human IgG1, V domains shown) VH: QVQLQQSGPELVKPGASVKISCKASGYAFSSSWVNWVKQRPGKGLEWIGRIYPGDGDSNYNGNFKGKATLTADKSSNTAYLQLSSLTSEDSAVYFCARKSHFIYYTLDYWGQGTPVTVSS VL: DIVMTQSHKFKSTSVGDRVSIACKASQDVGTSVAWYQQKPGKSPKLLIYWASSRHTGVPDRFTGSGSGTDFTLTISNVQSEDLTDYFCQQYSTYPYTFGGGTKLEIK | – |
| 1.2 | 37 | – | no binding | MTK-210 (antibody, human IgG1, V domains shown) VH: QVQLQQSGPELVKPGASVKISCKASDYEFSRSWMNWVKQRPGKGLEWIGRIYPGDGDTNYNGKFKGKATLTADKSSNTAYMQLNSLTSEDSAVYFCARKGGYYYSISNYFDYWGQGTTLTVSS VL: QIVLTQSPAIMSASPGVKVTMTCSASSSVSYMHWYQQKPGSSPRLLIYDTSNLASGVPVRFSGSGSGTSYSLTISRMEAEDAATYYCQQWSSYPPYTFGGGTKLEIK | no binding (tested: analyte up to 600 nM) |
| 24.7 | 3700 | – | no binding | MTK-206 (antibody, human IgG1, V domains shown) VH: QVQLQQSGAELARPGASVKMSCKASGYTFTSYTMHWVKQRPGQGLEWIGYINPSSGYIKNSQKFKDKATLTADKSSSTAYMQLSSLTSEDSAVYYCARTVYGYYGSSPDYWGQGTTLTVSS VL: DIQMTQSPSSLSASLGERVSLTCRASQDIGSNLNWLQQEPDGTIKRLIYATSSLESGVPKRFSGSRSGSDYSLTISSLESEDFVDYYCLQYDSSPWTFGGGTKLEIK | no binding (tested: analyte up to 600 nM) |
